# B1: eGFP-53BP1 (wild-type TP53-binding protein 1 tagged with enhanced green fluorescent protein) [not stated] / itself (parent)
# chain: MDPTGSQLDSDFSQQDTPCLIIEDSQPESQVLEDDSGSHFSMLSRHLPNLQTHKENPVLDVVSNPEQTAGEERGDGNSGFNEHLKENKVADPVDSSNLDTCGSISQVIEQLPQPNRTSSVLGMSVESAPAVEEEKGEELEQKEKEKEEDTSGNTTHSLGAEDTASSQLGFGVLELSQSQDVEENTVPYEVDKEQLQSVTTNSGYTRLSDVDANTAIKHEEQSNEDIPIAEQSSKDIPVTAQPSKDVHVVKEQNPPPARSEDMPFSPKASVAAMEAKEQLSAQELMESGLQIQKSPEPEVLSTQEDLFDQSNKTVSSDGCSTPSREEGGCSLASTPATTLHLLQLSGQRSLVQDSLSTNSSDLVAPSPDAFRSTPFIVPSSPTEQEGRQDKPMDTSVLSEEGGEPFQKKLQSGEPVELENPPLLPESTVSPQASTPISQSTPVFPPGSLPIPSQPQFSHDIFIPSPSLEEQSNDGKKDGDMHSSSLTVECSKTSEIEPKNSPEDLGLSLTGDSCKLMLSTSEYSQSPKMESLSSHRIDEDGENTQIEDTEPMSPVLNSKFVPAENDSILMNPAQDGEVQLSQNDDKTKGDDTDTRDDISILATGCKGREETVAEDVCIDLTCDSGSQAVPSPATRSEALSSVLDQEEAMEIKEHHPEEGSSGSEVEEIPETPCESQGEELKEENMESVPLHLSLTETQSQGLCLQKEMPKKECSEAMEVETSVISIDSPQKLAILDQELEHKEQEAWEEATSEDSSVVIVDVKEPSPRVDVSCEPLEGVEKCSDSQSWEDIAPEIEPCAENRLDTKEEKSVEYEGDLKSGTAETEPVEQDSSQPSLPLVRADDPLRLDQELQQPQTQEKTSNSLTEDSKMANAKQLSSDAEAQKLGKPSAHASQSFCESSSETPFHFTLPKEGDIIPPLTGATPPLIGHLKLEPKRHSTPIGISNYPESTIATSDVMSESMVETHDPILGSGKGDSGAAPDVDDKLCLRMKLVSPETEASEESLQFNLEKPATGERKNGSTAVAESVASPQKTMSVLSCICEARQENEARSEDPPTTPIRGNLLHFPSSQGEEEKEKLEGDHTIRQSQQPMKPISPVKDPVSPASQKMVIQGPSSPQGEAMVTDVLEDQKEGRSTNKENPSKALIERPSQNNIGIQTMECSLRVPETVSAATQTIKNVCEQGTSTVDQNFGKQDATVQTERGSGEKPVSAPGDDTESLHSQGEEEFDMPQPPHGHVLHRHMRTIREVRTLVTRVITDVYYVDGTEVERKVTEETEEPIVECQECETEVSPSQTGGSSGDLGDISSFSSKASSLHRTSSGTSLSAMHSSGSSGKGAGPLRGKTSGTEPADFALPSSRGGPGKLSPRKGVSQTGTPVCEEDGDAGLGIRQGGKAPVTPRGRGRRGRPPSRTTGTRETAVPGPLGIEDISPNLSPDDKSFSRVVPRVPDSTRRTDVGAGALRRSDSPEIPFQAAAGPSDGLDASSPGNSFVGLRVVAKWSSNGYFYSGKITRDVGAGKYKLLFDDGYECDVLGKDILLCDPIPLDTEVTALSEDEYFSAGVVKGHRKESGELYYSIEKEGQRKWYKRMAVILSLEQGNRLREQYGLGPYEAVTPLTKAADISLDNLVEGKRKRRSNVSSPATPTASSSSSTTPTRKITESPRASMGVLSGKRKLITSEEERSPAKRGRKSATVKPGAVGAGEFVSPCESGDNTGEPSALEEQRGPLPLNKTLFLGYAFLLTMATTSDKLASRSKLPDGPTGSSEEEEEFLEIPPFNKQYTESQLRAGAGYILEDFNEAQCNTAYQCLLIADQHCRTRKYFLCLASGIPCVSHVWVHDSCHANQLQNYRNYLLPAGYSLEEQRILDWQPRENPFQNLKVLLVSDQQQNFLELWSEILMTGGAASVKQHHSSAHNKDIALGVFDVVVTDPSCPASVLKCAEALQLPVVSQEWVIQCLIVGERIGFKQHPKYKHDYVSH
# Variants of: B1
# Assay: Homo-FRET (FAIM, fluorescence anisotropy imaging) in live DIvA cells
# Conditions: with itself; live DIvA cell nuclei, N = 5 cells, two biological replicates; value is the box median; read off a plot
row,screen value [delta r],Variant
1,0.01,chain 1 Y1258A Y1259A

# — PMC7666136
